In patent publication US5733790, “CRF binding protein antibodies and assays using same” (The Salk Institute for Biological Studies, dated 1998) one finds Kd data, which are given here for one molecule.

This test has as its target T1, rat/human corticotropin releasing factor (human and rat (same 41-residue sequence), C-terminal amide (NH2)).
T1 peptide: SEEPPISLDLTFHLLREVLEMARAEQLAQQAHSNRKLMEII
The test is described as follows: binding assay, method not described.

As a reminder, the Kd is a measure of binding affinity in units of concentration.

B1: purified human CRF-BP (native 37 kD protein purified from human plasma) (other)
chain: YLELREAADYDPFLLFSANLKRELAGEQPYRRALRCLDMLSLQGQFTFTADRPQLHCAAFFISEPEEFITIHYDQVSIDCQGGDFLKVFDGWILKGEKFPSSQDHPLPSAERYIDFCESGLSRRSIRSSQNVAMIFFRVHEPGNGFTLTIKTDPNLFPCNVISQTPNGKFTLVVPHQHRNCSFSIIYPVVIKISDLTLGHVNGLQLKKSSAGCEGIGDFVELLGGTGLDPSKMTPLADLCYPFHGPAQMKVGCDNTVVRMVSSGKHVNRVTFEYRQLEPYELENPNGNSIGEFCLSGL
Take B1: binding was put at a Kd of 0.1 nM.
